Test results from patent EP4592317A1 (ABlink Biotech Co., Ltd., dated 2025).
Where “and” joins values, the source holds several entries; their conditions need not be identical. Equal entries are not always repeated.

T1: Mouse 4-1BB extracellular region recombinant protein (his-tag) (mouse, UniProt P20334 24-187)
T1 construct: extracellular domain; also called Mouse4-1BB, his-tag; not shown: his-tag
T1 sequence (looked up): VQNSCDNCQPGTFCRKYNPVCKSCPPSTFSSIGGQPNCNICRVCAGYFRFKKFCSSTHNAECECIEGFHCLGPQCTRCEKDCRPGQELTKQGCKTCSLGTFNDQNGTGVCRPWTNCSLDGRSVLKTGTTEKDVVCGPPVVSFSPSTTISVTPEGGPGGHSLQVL


Tests used:
[1] = biological target: T2, Human 4-1BB extracellular domain recombinant protein (his-tag) (human, UniProt Q07011 24-186); assay: ELISA, coated human 4-1BB-his 200 ng/well
T2 construct: extracellular domain; also called Human4-1BB, his-tag; human 4-1BB extracellular region recombinant protein; not shown: his-tag

[2] = biological target: T3, Monkey 4-1BB extracellular region recombinant protein (his-tag) (monkey); assay: ELISA, coated monkey 4-1BB-his 200 ng/well
T3 construct: extracellular domain; also called Monkey4-1BB, his-tag

[3] = biological target: T2, Human 4-1BB extracellular domain …; assay: ELISA, coated human 4-1BB-his 200 ng/well; antibody 0.12 µg/ml
[4] = biological target: T2, Human 4-1BB extracellular domain …; assay: ELISA, coated human 4-1BB-his 200 ng/well; antibody 0.37 µg/ml
[5] = biological target: T2, Human 4-1BB extracellular domain …; assay: ELISA, coated human 4-1BB-his 200 ng/well; antibody 1.11 µg/ml
[6] = biological target: T2, Human 4-1BB extracellular domain …; assay: ELISA, coated human 4-1BB-his 200 ng/well; antibody 10.0 µg/ml
[7] = biological target: T2, Human 4-1BB extracellular domain …; assay: ELISA, coated human 4-1BB-his 200 ng/well; antibody 3.33 µg/ml
[8] = biological target: T2, Human 4-1BB extracellular domain …; assay: ELISA, coated human 4-1BB-his 200 ng/well; antibody 0.014 µg/ml
[9] = biological target: T2, Human 4-1BB extracellular domain …; assay: ELISA, coated human 4-1BB-his 200 ng/well; antibody 0.041 µg/ml
[10] = biological target: T3, Monkey 4-1BB extracellular region …; assay: ELISA, coated monkey 4-1BB-his 200 ng/well; antibody 0.12 µg/ml
[11] = biological target: T3, Monkey 4-1BB extracellular region …; assay: ELISA, coated monkey 4-1BB-his 200 ng/well; antibody 0.37 µg/ml
[12] = biological target: T3, Monkey 4-1BB extracellular region …; assay: ELISA, coated monkey 4-1BB-his 200 ng/well; antibody 1.11 µg/ml
[13] = biological target: T3, Monkey 4-1BB extracellular region …; assay: ELISA, coated monkey 4-1BB-his 200 ng/well; antibody 10.0 µg/ml
[14] = biological target: T3, Monkey 4-1BB extracellular region …; assay: ELISA, coated monkey 4-1BB-his 200 ng/well; antibody 3.33 µg/ml
[15] = biological target: T3, Monkey 4-1BB extracellular region …; assay: ELISA, coated monkey 4-1BB-his 200 ng/well; antibody 0.014 µg/ml
[16] = biological target: T3, Monkey 4-1BB extracellular region …; assay: ELISA, coated monkey 4-1BB-his 200 ng/well; antibody 0.041 µg/ml
[17] = biological target: T2, Human 4-1BB extracellular domain …; assay: ELISA, coated human 4-1BB-his 200 ng/well; antibody 0 µg/ml (background well)
[18] = biological target: T3, Monkey 4-1BB extracellular region …; assay: ELISA, coated monkey 4-1BB-his 200 ng/well; antibody 0 µg/ml (background well)
[19] = biological target: T2, Human 4-1BB extracellular domain …; assay: SPR (Biacore 8K), VHH-hFc captured on Protein A chip, human 4-1BB-his as analyte, 25°C, 1:1 fit
[20] = biological target: T1, Mouse 4-1BB extracellular region …; assay: ELISA, coated mouse 4-1BB his-tag 200 ng/well
[21] = biological target: T1, Mouse 4-1BB extracellular region …; assay: ELISA, coated mouse 4-1BB-his 200 ng/well; antibody 0.12 µg/ml
[22] = biological target: T1, Mouse 4-1BB extracellular region …; assay: ELISA, coated mouse 4-1BB-his 200 ng/well; antibody 0.37 µg/ml
[23] = biological target: T1, Mouse 4-1BB extracellular region …; assay: ELISA, coated mouse 4-1BB-his 200 ng/well; antibody 1.11 µg/ml
[24] = biological target: T1, Mouse 4-1BB extracellular region …; assay: ELISA, coated mouse 4-1BB-his 200 ng/well; antibody 10.0 µg/ml
[25] = biological target: T1, Mouse 4-1BB extracellular region …; assay: ELISA, coated mouse 4-1BB-his 200 ng/well; antibody 3.33 µg/ml
[26] = biological target: T1, Mouse 4-1BB extracellular region …; assay: ELISA, coated mouse 4-1BB-his 200 ng/well; antibody 0.014 µg/ml
[27] = biological target: T1, Mouse 4-1BB extracellular region …; assay: ELISA, coated mouse 4-1BB-his 200 ng/well; antibody 0.041 µg/ml
[28] = biological target: T1, Mouse 4-1BB extracellular region …; assay: ELISA, coated mouse 4-1BB-his 200 ng/well; antibody 0 µg/ml (background well)

Row | Binder | EC50 [1] | EC50 [2] | absorbance at 450 nm [3] | absorbance at 450 nm [4] | absorbance at 450 nm [5] | absorbance at 450 nm [6] | absorbance at 450 nm [7] | absorbance at 450 nm [8] | absorbance at 450 nm [9] | absorbance at 450 nm [10] | absorbance at 450 nm [11] | absorbance at 450 nm [12] | absorbance at 450 nm [13] | absorbance at 450 nm [14] | absorbance at 450 nm [15] | absorbance at 450 nm [16] | absorbance at 450 nm [17] | absorbance at 450 nm [18] | Kd [19] | koff [19] | other results
1 | 137-36 VHH-hFc recombinant antibody (Fc fusion, VHH fragment inserted into vector pFclG with human IgG1 Fc tag, expressed in HEK293F; not shown: human IgG1 Fc tag of the eukaryotic expression vector pFclG) QVQLVESGGGLVQTGGSLTLSCVASGRRFEAYTIGWLRQAPGDLREGVGCIFGGTTFTGYDDSVKGRFTISRDTAKNTVYLRMNNLTSEDTATYYCAAEGRPGQIKGQHGCLTPSWYNYKGQGTQVTVSS | 0.001 µg/mL and 0.011 nM | 51.9 µg/mL and 649 nM | 0.383 | 0.347 | 0.414 | 0.48 | 0.454 | 0.413 | 0.372 | 0.372 | 0.276 | 0.456 | 1.91 | 0.879 | 0.333 | 0.354 | 0.112 | 0.041 |  |  | 
2 | 137-16 VHH-hFc recombinant antibody (Fc fusion, VHH fragment inserted into vector pFclG with human IgG1 Fc tag, expressed in HEK293F; Preparation had non-specific bands, purity >70%; also called CD137-16; not shown: human IgG1 Fc tag of the eukaryotic expression vector pFclG) EVQLVESGGGLVQAGASLTLSCVISGRTFSSYAMGWYRQAPGKERAFVGTITWNNDIIYSDSVKGRFTISTDDGKNTMYLQMNNLKPEDTAVYYCAAYSVPYGDFCTLNYDLMDYWGKGTLVTVSS | 0.536 µg/mL and 6.7 nM | 0.234 µg/mL and 2.93 nM | 0.704 | 1.58 | 3.52 |  |  | 0.41 | 0.419 | 1.17 | 2.79 |  |  |  | 0.447 | 0.581 | 0.096 | 0.043 | 33.3 nM | 0.00274 s⁻¹ | kon [19]: 82200 M⁻¹ s⁻¹
3 | 137-7 VHH-hFc recombinant antibody (Fc fusion, VHH fragment inserted into vector pFclG with human IgG1 Fc tag, expressed in HEK293F; also called CD137-7; not shown: human IgG1 Fc tag of the eukaryotic expression vector pFclG) QVQLVESGGGLVQPGGSLRLSCAASGFTLDSYAIAWFRQAPGKEREGVSCITSSGGSTNYADSVKGRFTISRDGAKNTVYLQLNSLKPEDTAIYYCAAFHRATCVILGEYDYWGQGTQVTVSS | 0.09 µg/mL and 1.12 nM | 0.17 µg/mL and 2.12 nM | 2.37 |  |  |  |  | 0.589 | 0.963 | 1.54 | 3.19 |  |  |  | 0.581 | 0.794 | 0.081 | 0.055 | 38 nM | 0.0298 s⁻¹ | binding result [20]: no binding (tested: 0.014-10 µg/mL); absorbance at 450 nm [21]: 0.166; absorbance at 450 nm [22]: 0.201; absorbance at 450 nm [23]: 0.191; absorbance at 450 nm [24]: 0.284; absorbance at 450 nm [25]: 0.218; absorbance at 450 nm [26]: 0.187; absorbance at 450 nm [27]: 0.18; absorbance at 450 nm [28]: 0.209; kon [19]: 783000 M⁻¹ s⁻¹
4 | 137-39 VHH-hFc recombinant antibody (Fc fusion, VHH fragment inserted into vector pFclG with human IgG1 Fc tag, expressed in HEK293F; Preparation had non-specific bands, purity about 30%; not shown: human IgG1 Fc tag of the eukaryotic expression vector pFclG) QVQLVESGGGLVHVGESLTLSCVISGGSSNLYGIGWYRQAPGQERKLVAVLHNEHTTKYLDSVKGRFFVSGDNAKNTLYLHMNNVKVEDTAVYYCNSASGTLAGTGYFASVGPWGQGTLVTVSS | 6.04 µg/mL and 75.6 nM | 0.001 µg/mL and 0.012 nM | 0.461 | 0.458 | 0.62 | 1.45 | 1 | 0.521 | 0.477 | 0.306 | 0.251 | 0.286 | 0.405 | 0.342 | 0.292 | 0.387 | 0.128 | 0.041 |  |  | 
5 | 137-1 VHH-hFc recombinant antibody (Fc fusion, also called CD137-1; not shown: human IgG1 Fc tag of the eukaryotic expression vector pFclG) QVQLVESGGGLVQPGGSLRLSCVASGFVFSTVTMGWGRQVPGKEFEWVSGVSSEGITDYADSVKGRFTISRDNAKNTVYLEMNSLKSEDTAEYYCLIGGRWSFGTWGQGTQVTVSS | 0.138 µg/mL and 1.73 nM | 0.113 µg/mL and 1.41 nM | 1.5 | 3.97 |  |  |  | 0.612 | 0.754 | 1.85 | 3.97 |  |  |  | 0.621 | 0.971 | 0.093 | 0.077 | 3.91 nM | 0.00916 s⁻¹ | binding result [20]: no binding (tested: 0.014-10 µg/mL); absorbance at 450 nm [21]: 0.184; absorbance at 450 nm [22]: 0.269; absorbance at 450 nm [23]: 0.207; absorbance at 450 nm [24]: 0.31; absorbance at 450 nm [25]: 0.231; absorbance at 450 nm [26]: 0.199; absorbance at 450 nm [27]: 0.202; absorbance at 450 nm [28]: 0.24; kon [19]: 2.34e+06 M⁻¹ s⁻¹
6 | 137-12 VHH-hFc recombinant antibody (Fc fusion, VHH fragment inserted into vector pFclG with human IgG1 Fc tag, expressed in HEK293F; not shown: human IgG1 Fc tag of the eukaryotic expression vector pFclG) QVQLVESGGGLVHPGGSLRLSCAASGFTLDDSAIGWFRQAPGKEREGVSCRSRSGYMTKYADSVKGRFTISRYNANNTMYLQMNSLKPEDTAVYYCATTRRGYCSGYETKGVDYWGQGIQVTVSS | 6.3e-05 µg/mL and 0.001 nM | 10.3 µg/mL and 128 nM | 0.334 | 0.341 | 0.376 | 0.432 | 0.433 | 0.395 | 0.355 | 0.376 | 0.343 | 0.423 | 1.07 | 0.679 | 0.385 | 0.37 | 0.087 | 0.058 |  |  | 
